From patent publication US20230192897A1 (NUMAB THERAPEUTICS, published 2023)

Legend:
[1] = molecular target: T1, CD137 on Jurkat NFkB reporter cells (human, UniProt Q07011 24-255); assay: cell-based or functional assay
human PDL1 on cells = human PDL1 on cells (human, UniProt Q9NZQ7 19-290); assay: cell-based or functional assay
Fc tagged human PDL1 = molecular target: T2, Fc tagged human PDL1 (human, UniProt Q9NZQ7 19-239); assay: SPR
T2 construct: Bought (Sino Biological, cat. 10084-H02H); captured on the SPR chip; also called PDL1-Fc chimeric protein
Experimental: (§1) Affinity to PDL1 of the different species was determined by SPR measurements using a Biacore T200 device (GE Healthcare). An antibody specific for the Fc region of human IgGs was immobilized on a sensor chip (CM5 sensor chip, GE Healthcare) by amine-coupling. For all formats, with the exception of the Fc containing Morrison formats, PDL1-Fc chimeric protein from different species were captured by the immobilized antibody.
(§2) Three-fold serial dilutions of the molecules specific for PDL1 (0.12-90 nM) were injected into the flow cells for three minutes and dissociation was monitored for 10 minutes. After each injection cycle, surfaces were regenerated with one injection of a 3 M MgCl₂ solution. The apparent dissociation (kd) and association (kₐ) rate constants and the apparent dissociation equilibrium constant (KD) were calculated using one-to-one Langmuir binding model. Affinity to CD137 of the different species was determined using the identical setup as for PDL1 with the exception that CD137-Fc chimeric protein from different species were captured by the immobilized antibody.

Fc tagged human CD137 = molecular target: T3, Fc tagged human CD137 (human, UniProt Q07011 24-186); assay: SPR
T3 construct: also called CD137-Fc chimeric protein
Experimental: as §1, §2

biotinylated human PDL1 [2] = molecular target: T4, biotinylated human PDL1 (human, UniProt Q9NZQ7 19-238, limits assumed, biotinylated); assay: competition ELISA B7.1/PDL1
T4 construct: also called biotinylated PDL1
Experimental: Plates were blocked for 1 hour at room temperature by adding 300 μl of PBS with 1% BSA and 0.2% tween (dilution buffer) to each well. […] The mixtures were pre-incubated for 1 hour at room temperature under gentle agitation on a rotating mixer (21 rpm) and added to the microplates after 3 wash cycles with 450 μl wash buffer per well. Plates were incubated for 1.5 hours at room temperature under gentle agitation, then 10 ng/ml streptavidin-polyHRP40 was added to each microplate well after three washes with 450 μl of wash buffer per well. After 1 h incubation at RT, plates were washed three times with 450 μl wash buffer and TMB substrate solution was added. The enzymatic reaction was stopped after 6 minutes by addition of 1 M HCl and absorbance was measured at 450 nm using 690 nm as a reference wavelength. For calculation of IC₅₀ values, a four-parameter logistic (4PL) curve fit was performed in Graph Pad Prism using reference subtracted values.

biotinylated human PDL1 [3] = molecular target: T4, biotinylated human PDL1; assay: competition ELISA PD-1/PDL1
Experimental: Plates were blocked for 1 hour at room temperature by adding 300 μl of PBS with i%BSA and 0.2% tween (dilution buffer) to each well. Inhibitors were serially diluted in 3-fold steps to final concentrations ranging from 300 to 0.005 ng/ml in dilution buffer containing 1 ng/ml biotinylated human PDL1. The mixtures were pre-incubated for 1 hour at room temperature under gentle agitation on a rotating mixer (21 rpm) and added to the microplates after 3 wash cycles with 450 μl wash buffer per well. Plates were incubated for 1.5 hours at room temperature under gentle agitation, then 10 ng/ml streptavidin-polyHRP40 was added to each microplate well after three washes with 450 μl of wash buffer per well. After 1 h incubation at RT, plates were washed three times with 450 μl wash buffer and TMB substrate solution was added. The enzymatic reaction was stopped after 6 minutes by addition of 1 M HCl and absorbance was measured at 450 nm using 690 nm as a reference wavelength. For calculation of IC₅₀ values, a four-parameter logistic (4PL) curve fit was performed in Graph Pad Prism using reference subtracted values.

[4] = molecular target: T1, CD137 on Jurkat NFkB reporter cells; assay: cell-based or functional assay; remark: listed apart in the source

| IC50 (ng/ml) (EC50 in Table 16C), NFkB reporter, HCC827 + IFNg, 24 h, +HSA [1] [ng/mL] | rel. IC50 (PRO1186/test), 24 h [1] [fold] | IC50 (ng/ml), NF-AT potency assay, +HSA (human PDL1 on cells) [ng/mL] | rel. IC50 (avelumab/test), +HSA (human PDL1 on cells) [fold] | Kd (Fc tagged human PDL1) [nM] | kon (Fc tagged human PDL1) [M⁻¹ s⁻¹] | Kd (Fc tagged human CD137) [nM] | kon (Fc tagged human CD137) [M⁻¹ s⁻¹] | IC50 (biotinylated human PDL1 [2]) [ng/mL] | rel. IC50 (IC50 avelumab/IC50 test) (biotinylated human PDL1 [2]) [fold] | IC50 (biotinylated human PDL1 [3]) [ng/mL] | rel. IC50 (IC50 avelumab/IC50 test) (biotinylated human PDL1 [3]) [fold] | koff (Fc tagged human PDL1) [s⁻¹] | koff (Fc tagged human CD137) [s⁻¹] | Area under the curve (calculated using PRO885 normalized data), first line (6 h by the order of the upper part) [4] | Area under the curve (calculated using PRO885 normalized data), second line (24 h by the order of the upper part) [4] | EC50 [ng/ml], NF-kB reporter, HCC827 + IFNg, +HSA, 6 h [4] [ng/mL] | IC10/EC90 ratio, first line (6 h by the order of the upper part) [4] | IC10/EC90 ratio, second line (24 h by the order of the upper part) [4] | Maximum NF-kB activation (rel. to PRO1186) [%], first line (6 h by the order of the upper part) [4] [%] | Binder | further results |
| --- | --- | --- | --- | --- | --- | --- | --- | --- | --- | --- | --- | --- | --- | --- | --- | --- | --- | --- | --- | --- | --- |
| 7.24 | 1.23 | 54.8 | 0.68 | 0.0098 | 3.4e+06 | 1.1 | 320000 | 8.18 | 1.51 | 1.78 | 1.24 |  |  |  |  |  |  |  |  | PRO1482 (other, trispecific scDb-scFv; also called 37-20-B03 sc09.1 scDb-i/38-02-A04 sc13 scDb-o/19-01-H04 sc03 scFv) DIQMTQSPSSLSASVGDRVTITCQASQSINNVLAWYQQKPGKAPKLLIYRASTLASGVPSRFSGSGSGTDFTLTISSLQPEDFATYYCQSSYGNYGDFGCGTKVTVLGGGGGSEVQLVESGGGLVQPGGSLRLSCAASGFSFNSDYWIYWVRQAPGKGLEWIASIYGGSSGNTQYASWAQGRFTISRDNSKNTVYLQMNSLRAEDTAVYFCARGYVDYGGATDLWGQGTLVTVSSGGGGSGGGGSGGGGSGGGGSIQMTQSPASLSASVGDRVTITCQASQSIGTYLAWYQQKPGKPPKLLIYRAFILASGVPSRFSGSGSGTDFTLTISSLQPEDFATYYCQSNFYSDSTTIGPNAFGTGTKVTVLGGGGGSEVQLVESGGGLVQPGGSLRLSCAASGFSFSNSYWICWVRQAPGKCLEWIGCTFVGSSDSTYYANWAKGRFTISRDNSKNTVYLQMNSLRAEDTAVYYCARHPSDAVYGYANNLWGQGTLVTVSSGGGGSGGGGSIQMTQSPSSLSASVGDRVTITCQSSESVYSNNQLSWYQQKPGQPPKLLIYDASDLASGVPSRFSGSGSGTDFTLTISSLQPEDFATYYCAGGFSSSSDTAFGGGTKLTVLGGGGGSGGGGSGGGGSGGGGSEVQLVESGGGLVQPGGSLRLSCAASGFSLSSNAMGWVRQAPGKGLEYIGIISVGGFTYYASWAKGRFTISRDNSKNTVYLQMNSLRAEDTATYFCARDRHGGDSSGAFYLWGQGTLVTVSS | IC50 (ng/ml) (EC50 in Table 16C), NFkB reporter, HCC827 + IFNg, 6 h, +HSA [1]: 20.1 ng/mL; rel. IC50 (PRO1186/test), 6 h [1]: 0.55 fold |
| 18.4 | 1.02 | 9.83 | 3.73 |  |  | 1.7 | 450000 | 3.31 | 0.84 | 2.75 | 0.51 | 4.5e-05 | 0.00075 | 83.2 | 119 | 21 | 5.03 | 16.1 | 55.3 | PRO1431 (other, trispecific scDb-scFv; also called 38-02-A04 sc13 scDb-i/33-03-G02 sc18 scDb-o/19-01-H04 sc03 scFv) DIQMTQSPSSLSASVGDRVTITCQASQSINDYLAWYQQKPGKAPKLLIYKASTLASGVPSRFSGSGSGTDFTLTISSLQPEDFATYYCQQGYIITDIDNVFGTGTKVTVLGGGGGSEVQLVESGGGLVQPGGSLRLSCAASGFSFSNSYWICWVRQAPGKCLEWIGCTFVGSSDSTYYANWAKGRFTISRDNSKNTVYLQMNSLRAEDTAVYYCARHPSDAVYGYANNLWGQGTLVTVSSGGGGSGGGGSGGGGSGGGGSIQMTQSPSSLSASVGDRVTITCQASQSINNVLAWYQQKPGKAPKLLIYRASTLASGVPSRFSGSGSGTDFTLTISSLQPEDFATYYCQSSYGNYGDFGCGTKVTVLGGGGGSQVQLQESGPGLVKPSETLSLTCKASGFSFSSGYDMCWVRQPPGKGLEWIACVVAGSVDITYYASWAKGRVTISKDSSKNQVSLKLSSVTAADTAVYYCARKDAYSDAFNLWGQGTLVTVSSGGGGSGGGGSIQMTQSPSSLSASVGDRVTITCQSSESVYSNNQLSWYQQKPGQPPKLLIYDASDLASGVPSRFSGSGSGTDFTLTISSLQPEDFATYYCAGGFSSSSDTAFGGGTKLTVLGGGGGSGGGGSGGGGSGGGGSEVQLVESGGGLVQPGGSLRLSCAASGFSLSSNAMGWVRQAPGKGLEYIGIISVGGFTYYASWAKGRFTISRDNSKNTVYLQMNSLRAEDTATYFCARDRHGGDSSGAFYLWGQGTLVTVSS | Maximum NF-kB activation (rel. to PRO1186) [%], second line (24 h by the order of the upper part) [4]: 68.6%; rel. Area under the curve (AUCsample/AUCPRO1186), first line (6 h by the order of the upper part) [4]: 0.4 fold; rel. Area under the curve (AUCsample/AUCPRO1186), second line (24 h by the order of the upper part) [4]: 0.54 fold; rel. EC50 (EC50, PRO1186/EC50, sample), NF-kB reporter, 6 h [4]: 0.68 fold; rel. EC50 (EC50, PRO1186/EC50, sample), NF-kB reporter, 24 h [4]: 1.02 fold; rel. IC10/EC90 (ratio of sample/ratio of PRO1186), first line (6 h by the order of the upper part) [4]: 0.3 fold; rel. IC10/EC90 (ratio of sample/ratio of PRO1186), second line (24 h by the order of the upper part) [4]: 1.74 fold |
| 0.91 | 3.55 | 35.2 | 1.11 | 0.0082 | 3.6e+06 | 2 | 310000 | 8.89 | 1.49 | 4.14 | 0.56 | 2.9e-05 | 0.0006 | 52.3 | 188 | 2.4 | 53.9 | 15.7 | 36.2 | PRO1473 (other, trispecific scDb-scFv; also called 38-02-A04 sc13 scDb-i/33-03-G02 sc03 scDb-o/19-01-H04 sc03 scFv) DFQLTQSPSSLSASVGDRVTITCQASQSINDYLAWYQQKPGKSPKLLIYKASTLASGVPSRFSGSGSGTDFTLTISSLQPEDFATYYCQQGYIITDIDNVFGTGTKVTVLGGGGGSEVQLVESGGGLVQPGGSLRLSCAASGFSFSNSYWICWVRQAPGKCLEWIGCTFVGSSDSTYYANWAKGRFTISRDNSKNTVYLQMNSLRAEDTAVYYCARHPSDAVYGYANNLWGQGTLVTVSSGGGGSGGGGSGGGGSGGGGSIQMTQSPSSLSASVGDRVTITCQASQSINNVLAWYQQKPGKAPKLLIYRASTLASGVPSRFSGSGSGTDFTLTISSLQPEDFATYYCQSSYGNYGDFGCGTKVTVLGGGGGSQSQLQESGPGLVKPSETLSLTCKASGFSFSSGYDMCWVRQPPGKGLEWIACVVAGSVDITYYASWAKGRVTISKDSSKNQVSLKLSSVTAADTAVYFCARKDAYSDAFNLWGQGTLVTVSSGGGGSGGGGSIQMTQSPSSLSASVGDRVTITCQSSESVYSNNQLSWYQQKPGQPPKLLIYDASDLASGVPSRFSGSGSGTDFTLTISSLQPEDFATYYCAGGFSSSSDTAFGGGTKLTVLGGGGGSGGGGSGGGGSGGGGSEVQLVESGGGLVQPGGSLRLSCAASGFSLSSNAMGWVRQAPGKGLEYIGIISVGGFTYYASWAKGRFTISRDNSKNTVYLQMNSLRAEDTATYFCARDRHGGDSSGAFYLWGQGTLVTVSS | Maximum NF-kB activation (rel. to PRO1186) [%], second line (24 h by the order of the upper part) [4]: 67.4%; rel. Area under the curve (AUCsample/AUCPRO1186), first line (6 h by the order of the upper part) [4]: 0.31 fold; rel. Area under the curve (AUCsample/AUCPRO1186), second line (24 h by the order of the upper part) [4]: 0.73 fold; rel. EC50 (EC50, PRO1186/EC50, sample), NF-kB reporter, 6 h [4]: 2.3 fold; rel. EC50 (EC50, PRO1186/EC50, sample), NF-kB reporter, 24 h [4]: 3.55 fold; rel. IC10/EC90 (ratio of sample/ratio of PRO1186), first line (6 h by the order of the upper part) [4]: 1.01 fold; rel. IC10/EC90 (ratio of sample/ratio of PRO1186), second line (24 h by the order of the upper part) [4]: 0.12 fold |
